Data from patent US20180086821A1 (MAYO FOUNDATION FOR MEDICAL EDUCATION AND RESEARCH, published 2018).

How the values were obtained:
[1] = target: T1, human RBC spectrin (human, UniProt P02549 1-2419; P11277 2-2137); assay: direct ELISA, mAb at 2 µg/ml
T1 construct: Bought from Sigma; also called human erythrocyte spectrin
Description: (§1) Human RBC spectrin, bovine myosin (heavy chain), mouse albumin, mouse hemoglobin, mouse transferrin, hen egg lysozyme, rabbit actin, rabbit myelin basic protein, and keyhole limpet hemocyanin (KLH) were purchased from Sigma. Proteins were tested for purity by SDS-polyacrylamide gel electrophoresis. […] Protein antigens were used at 5 μg/ml, and hapten was used at 2 μM. The proteins and hapten-BSA antigens were coated onto polystyrene or polyvinylchloride microtiter plates in 0.1 M carbonate buffer, pH 9.5, for 18 hours at 4° C. Coated plates were blocked with PBS containing 5% nonfat dry mild and 0.05% Tween 20 for 2 hours at room temperature, and incubated with mAbs diluted in blocking buffer (2 μg/ml) for 4 hours at room temperature. […] Bound IgM was detected with biotinylated goat anti-mouse IgM (p chain specific; Jackson Immunoresearch, West Grove, Pa.) followed by alkaline phosphatase conjugated to streptavidin, with p-nitrophenylphosphate as the chromogenic substrate. Absorbance was determined at 405 nm.

[2] = target: T2, bovine serum albumin (BSA) (bovine, UniProt P02769 25-607); assay: solid-phase ELISA
T2 construct: Carrier alone, without hapten; also called carrier protein BSA

[3] = target: T3, mouse albumin (mouse, UniProt P07724 25-608); assay: direct ELISA, antigen coated at 5 µg/ml
T3 construct: Bought from Sigma
Description: as §1

[4] = target: T1, human RBC spectrin; assay: direct ELISA, antigen coated at 5 µg/ml
Description: as §1

[5] = target: T4, mouse transferrin (mouse, UniProt Q921I1 20-697); assay: direct ELISA, antigen coated at 5 µg/ml
T4 construct: Bought from Sigma
Description: as §1

[6] = target: T5, rabbit myelin basic protein (rabbit, UniProt P25274 1-168); assay: direct ELISA, antigen coated at 5 µg/ml
T5 construct: Bought from Sigma; also called rabbit MBP
T5 sequence (P25274 whole entry): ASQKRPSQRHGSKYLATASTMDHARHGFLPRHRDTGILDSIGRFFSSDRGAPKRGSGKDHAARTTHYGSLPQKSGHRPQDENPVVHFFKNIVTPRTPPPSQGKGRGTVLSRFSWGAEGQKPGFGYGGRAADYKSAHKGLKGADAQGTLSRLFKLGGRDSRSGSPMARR
Description: as §1

[7] = target: T6, mouse hemoglobin (mouse, UniProt P01942 2-142; P02088 2-147); assay: direct ELISA, antigen coated at 5 µg/ml
T6 construct: Bought from Sigma; also called Mo Hb
Description: as §1

[8] = target: T7, hen egg lysozyme (hen (chicken), UniProt P00698 19-147); assay: direct ELISA, antigen coated at 5 µg/ml
T7 construct: Bought from Sigma; also called HEL
T7 sequence (P00698 19-147): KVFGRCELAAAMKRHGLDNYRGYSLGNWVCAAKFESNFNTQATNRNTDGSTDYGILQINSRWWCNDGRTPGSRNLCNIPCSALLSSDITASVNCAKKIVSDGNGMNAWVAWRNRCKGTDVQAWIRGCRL
Description: as §1

T1 sequence (P02549 whole entry, chain 1 of 2): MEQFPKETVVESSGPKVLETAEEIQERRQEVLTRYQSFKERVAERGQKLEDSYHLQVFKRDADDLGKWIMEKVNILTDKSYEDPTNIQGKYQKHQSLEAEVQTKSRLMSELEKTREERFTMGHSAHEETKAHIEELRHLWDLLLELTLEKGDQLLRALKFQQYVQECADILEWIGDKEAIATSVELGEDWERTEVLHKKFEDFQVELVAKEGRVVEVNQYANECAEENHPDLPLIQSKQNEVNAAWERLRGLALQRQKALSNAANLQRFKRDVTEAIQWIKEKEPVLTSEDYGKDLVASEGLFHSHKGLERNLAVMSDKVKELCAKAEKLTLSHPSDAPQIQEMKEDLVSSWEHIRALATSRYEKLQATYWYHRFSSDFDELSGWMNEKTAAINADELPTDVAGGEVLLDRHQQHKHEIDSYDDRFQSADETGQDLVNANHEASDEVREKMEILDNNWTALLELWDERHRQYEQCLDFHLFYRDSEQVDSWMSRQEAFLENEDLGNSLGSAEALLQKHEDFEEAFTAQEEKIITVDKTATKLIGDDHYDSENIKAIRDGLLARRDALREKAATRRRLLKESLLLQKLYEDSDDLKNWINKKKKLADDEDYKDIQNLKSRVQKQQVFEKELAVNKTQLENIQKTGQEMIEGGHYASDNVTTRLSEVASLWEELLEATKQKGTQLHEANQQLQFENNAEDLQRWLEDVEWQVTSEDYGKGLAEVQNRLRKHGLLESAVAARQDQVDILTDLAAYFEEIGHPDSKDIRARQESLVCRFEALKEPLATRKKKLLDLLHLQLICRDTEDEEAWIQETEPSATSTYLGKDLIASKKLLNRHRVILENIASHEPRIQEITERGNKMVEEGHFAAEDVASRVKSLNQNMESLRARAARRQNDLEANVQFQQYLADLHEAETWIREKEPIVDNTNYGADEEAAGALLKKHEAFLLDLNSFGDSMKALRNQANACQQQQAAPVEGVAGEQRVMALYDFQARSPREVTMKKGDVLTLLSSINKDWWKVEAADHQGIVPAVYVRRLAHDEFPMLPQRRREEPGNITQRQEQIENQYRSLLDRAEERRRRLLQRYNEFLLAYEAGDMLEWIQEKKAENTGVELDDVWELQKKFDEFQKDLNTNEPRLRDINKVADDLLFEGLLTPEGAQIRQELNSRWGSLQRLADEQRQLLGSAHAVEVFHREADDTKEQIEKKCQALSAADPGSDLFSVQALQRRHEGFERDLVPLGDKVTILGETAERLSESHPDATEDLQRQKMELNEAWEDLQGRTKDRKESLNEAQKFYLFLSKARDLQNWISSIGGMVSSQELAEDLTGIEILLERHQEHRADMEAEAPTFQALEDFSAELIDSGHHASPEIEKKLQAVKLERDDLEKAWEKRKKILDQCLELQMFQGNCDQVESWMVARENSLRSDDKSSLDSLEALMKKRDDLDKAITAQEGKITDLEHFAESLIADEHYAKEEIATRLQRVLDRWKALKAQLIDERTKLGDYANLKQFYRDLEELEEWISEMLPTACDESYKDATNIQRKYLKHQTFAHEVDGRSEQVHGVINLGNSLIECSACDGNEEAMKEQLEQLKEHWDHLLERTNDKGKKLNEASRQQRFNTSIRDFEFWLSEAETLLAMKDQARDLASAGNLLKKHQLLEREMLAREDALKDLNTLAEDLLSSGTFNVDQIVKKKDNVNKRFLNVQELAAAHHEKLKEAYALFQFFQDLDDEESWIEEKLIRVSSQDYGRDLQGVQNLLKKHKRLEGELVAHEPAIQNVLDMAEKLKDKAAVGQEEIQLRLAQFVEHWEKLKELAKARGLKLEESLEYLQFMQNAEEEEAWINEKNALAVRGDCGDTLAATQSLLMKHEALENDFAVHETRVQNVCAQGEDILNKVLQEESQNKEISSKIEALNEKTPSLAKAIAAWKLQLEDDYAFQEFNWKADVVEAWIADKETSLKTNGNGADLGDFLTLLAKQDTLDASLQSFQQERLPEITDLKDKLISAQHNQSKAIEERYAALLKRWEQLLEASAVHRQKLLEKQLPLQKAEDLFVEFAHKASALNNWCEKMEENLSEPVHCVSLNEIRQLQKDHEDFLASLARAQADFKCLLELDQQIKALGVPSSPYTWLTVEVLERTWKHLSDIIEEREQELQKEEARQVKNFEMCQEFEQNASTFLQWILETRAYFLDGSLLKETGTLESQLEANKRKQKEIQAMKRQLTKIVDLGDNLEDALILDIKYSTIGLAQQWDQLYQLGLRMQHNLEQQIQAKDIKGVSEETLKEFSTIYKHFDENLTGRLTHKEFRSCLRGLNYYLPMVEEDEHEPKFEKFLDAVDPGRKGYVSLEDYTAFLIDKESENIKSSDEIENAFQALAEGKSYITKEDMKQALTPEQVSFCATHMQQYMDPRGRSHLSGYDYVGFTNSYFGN
T1 sequence (P11277 2-2137, chain 2 of 2): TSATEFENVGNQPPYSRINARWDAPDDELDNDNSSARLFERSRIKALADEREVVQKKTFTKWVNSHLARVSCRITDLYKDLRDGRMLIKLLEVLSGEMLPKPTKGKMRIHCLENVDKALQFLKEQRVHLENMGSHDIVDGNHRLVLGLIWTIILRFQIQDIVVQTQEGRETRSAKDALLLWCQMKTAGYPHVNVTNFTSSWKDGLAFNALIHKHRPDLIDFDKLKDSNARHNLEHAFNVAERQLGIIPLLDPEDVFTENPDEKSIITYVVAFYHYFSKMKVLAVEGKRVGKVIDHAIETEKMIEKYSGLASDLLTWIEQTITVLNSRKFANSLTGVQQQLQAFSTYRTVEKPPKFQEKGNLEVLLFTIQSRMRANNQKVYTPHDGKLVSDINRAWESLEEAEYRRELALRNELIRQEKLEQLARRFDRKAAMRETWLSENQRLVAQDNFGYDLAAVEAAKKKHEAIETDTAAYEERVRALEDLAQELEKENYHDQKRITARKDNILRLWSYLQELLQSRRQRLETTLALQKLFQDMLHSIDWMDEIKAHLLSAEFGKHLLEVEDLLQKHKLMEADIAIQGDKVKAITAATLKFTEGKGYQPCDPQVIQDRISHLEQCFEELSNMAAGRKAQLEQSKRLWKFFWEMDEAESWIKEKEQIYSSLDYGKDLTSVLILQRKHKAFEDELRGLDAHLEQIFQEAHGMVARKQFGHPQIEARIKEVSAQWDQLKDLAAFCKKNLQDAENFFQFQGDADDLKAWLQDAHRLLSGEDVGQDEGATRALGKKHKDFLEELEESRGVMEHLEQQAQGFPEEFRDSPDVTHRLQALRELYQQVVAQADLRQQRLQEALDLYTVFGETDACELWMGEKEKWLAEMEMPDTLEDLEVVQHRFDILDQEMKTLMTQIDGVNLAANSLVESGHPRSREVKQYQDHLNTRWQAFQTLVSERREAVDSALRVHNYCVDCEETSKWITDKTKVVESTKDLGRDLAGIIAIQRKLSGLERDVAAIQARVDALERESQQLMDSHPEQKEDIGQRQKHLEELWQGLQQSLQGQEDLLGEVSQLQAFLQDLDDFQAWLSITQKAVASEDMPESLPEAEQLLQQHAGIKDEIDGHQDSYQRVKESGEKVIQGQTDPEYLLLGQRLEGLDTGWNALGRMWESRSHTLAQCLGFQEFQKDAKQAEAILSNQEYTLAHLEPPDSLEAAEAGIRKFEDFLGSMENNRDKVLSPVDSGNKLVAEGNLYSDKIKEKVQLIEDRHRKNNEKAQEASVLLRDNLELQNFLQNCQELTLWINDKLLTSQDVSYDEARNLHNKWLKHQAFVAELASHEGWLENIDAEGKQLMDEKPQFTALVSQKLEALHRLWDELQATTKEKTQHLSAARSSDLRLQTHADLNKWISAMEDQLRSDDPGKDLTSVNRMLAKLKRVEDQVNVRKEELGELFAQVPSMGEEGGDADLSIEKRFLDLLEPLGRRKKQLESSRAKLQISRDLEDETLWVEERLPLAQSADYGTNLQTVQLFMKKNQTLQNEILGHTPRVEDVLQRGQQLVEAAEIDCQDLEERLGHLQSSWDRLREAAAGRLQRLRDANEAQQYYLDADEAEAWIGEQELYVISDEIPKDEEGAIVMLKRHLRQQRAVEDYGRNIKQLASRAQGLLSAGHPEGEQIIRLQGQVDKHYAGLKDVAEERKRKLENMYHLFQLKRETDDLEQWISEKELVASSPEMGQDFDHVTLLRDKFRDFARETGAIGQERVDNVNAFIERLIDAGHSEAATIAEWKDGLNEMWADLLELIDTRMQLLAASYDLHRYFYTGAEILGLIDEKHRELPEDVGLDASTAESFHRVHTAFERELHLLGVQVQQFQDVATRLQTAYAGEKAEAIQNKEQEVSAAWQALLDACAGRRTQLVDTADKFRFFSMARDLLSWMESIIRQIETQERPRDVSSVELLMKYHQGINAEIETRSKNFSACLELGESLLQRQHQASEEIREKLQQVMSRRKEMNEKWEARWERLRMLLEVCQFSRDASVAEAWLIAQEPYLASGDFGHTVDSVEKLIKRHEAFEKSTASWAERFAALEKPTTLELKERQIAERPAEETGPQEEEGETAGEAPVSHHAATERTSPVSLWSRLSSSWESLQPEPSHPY

B1: mAb O1 (antibody, V domains shown)
VH: QVQLQQSGPELVKPGALVKISCKASGYTFTSYDINWVKQRPGQGLEWIGWIYPGDGSTKYNEKFKGKATLTADKSSSTAYMQLSSLTSENSAVYFCARGARFYWYFDVWGAGTTVTVSS
VL: DVQITQSPSYLAASPGETITINCRASKSISKYLAWYQEKPGKTNKLLIYSGSTLQSGIPSRFSGSGSGTDFTLTISSLEPEDFAMYYCQQHNEYPYTFGGGTKLEIKR
notes: Mouse IgM kappa; Entries may include the leader peptide; The hybridoma also makes the MOPC21 kappa chain; also called 01
binding result [1]: binds

B2: monoclonal antibody SCH94.03 (antibody, V domains shown)
VH: QVQLQQPGTELVKPGASVKLSCKASGYTFTSYWMHWVKQRPGQGLEWIGNINPSNGGTNYNEKFKSKATLTVDKSSSTAYMQLSSLTSEDSAVYYCARRAPYYGSRNFDYWGQGTTLTVSS
VL: DIQMTQTTSSLSASLGDRVTISCRASQDISNYLNWYQQKPDGTVKLLIYYTSRLHSGVPSRFSGSGSGTDYSLTISNLEQEDIATYFCQQGNTLPWTFGGGTKLEIKR
binding result [2]: no binding

B3: mAb A2B5 (antibody, mouse IgM, V domains shown)
VH: EVKLVESGGGLVQPGGSLRLSCATSGFTFSDFYMEWVRQPPGKRLEWIAASRNKANDYTTEYSASVKGRFIVSRDTSQSILYLQMNALRAEDTAIYYCARDARQLGLPAWFAYWGQGTLVTVSA
VL: QIVLTQSPAIMSASPGEKVTISCSASSSVSYMYWYQQKPGSSPKPWIYRTSNLASGVPARFSGSGSGTSYSLTISSMEAEDAATYYCQQYHSYPLTFGAGTKLELKR
notes: Mouse IgM kappa
binding result [3]: no binding (tested: mAbs at 2 µg/ml)
binding result [4]: no binding (tested: mAbs at 2 µg/ml)
binding result [5]: no binding (tested: mAbs at 2 µg/ml)
binding result [6]: no binding (tested: mAbs at 2 µg/ml)
binding result [7]: no binding (tested: mAbs at 2 µg/ml)
binding result [8]: no binding (tested: mAbs at 2 µg/ml)
